Assay results from publication PMC10540216, “Activity Guided Azide-methyllysine Photo-trapping for Substrate Profiling of Lysine Demethylases” (Journal of the American Chemical Society, 2023).

B1: SF3A1_HUMAN (protein, UniProt Q15459 2-793, looked up)
Splicing factor 3A subunit 1: PAGPVQAVPPPPPVPTEPKQPTEEEASSKEDSAPSKPVVGIIYPPPEVRNIVDKTASFVARNGPEFEARIRQNEINNPKFNFLNPNDPYHAYYRHKVSEFKEGKAQEPSAAIPKVMQQQQQTTQQQLPQKVQAQVIQETIVPKEPPPEFEFIADPPSISAFDLDVVKLTAQFVARNGRQFLTQLMQKEQRNYQFDFLRPQHSLFNYFTKLVEQYTKILIPPKGLFSKLKKEAENPREVLDQVCYRVEWAKFQERERKKEEEEKEKERVAYAQIDWHDFVVVETVDFQPNEQGNFPPPTTPEELGARILIQERYEKFGESEEVEMEVESDEEDDKQEKAEEPPSQLDQDTQVQDMDEGSDDEEEGQKVPPPPETPMPPPLPPTPDQVIVRKDYDPKASKPLPPAPAPDEYLVSPITGEKIPASKMQEHMRIGLLDPRWLEQRDRSIREKQSDDEVYAPGLDIESSLKQLAERRTDIFGVEETAIGKKIGEEEIQKPEEKVTWDGHSGSMARTQQAAQANITLQEQIEAIHKAKGLVPEDDTKEKIGPSKPNEIPQQPPPPSSATNIPSSAPPITSVPRPPTMPPPVRTTVVSAVPVMPRPPMASVVRLPPGSVIAPMPPIIHAPRINVVPMPPSAPPIMAPRPPPMIVPTAFVPAPPVAPVPAPAPMPPVHPPPPMEDEPTSKKLKTEDSLMPEEEFLRRNKGPVSIKVQVPNMQDKTEWKLNGQVLVFTLPLTDQVSVIKVKIHEATGMPAGKQKLQYEGIFIKDSNSLAYYNMANGAVIHLALKERGGRKK
B2: HACD3_HUMAN (protein, UniProt Q9P035 1-362, looked up)
Very-long-chain …: MENQVLTPHVYWAQRHRELYLRVELSDVQNPAISITENVLHFKAQGHGAKGDNVYEFHLEFLDLVKPEPVYKLTQRQVNITVQKKVSQWWERLTKQEKRPLFLAPDFDRWLDESDAEMELRAKEEERLNKLRLESEGSPETLTNLRKGYLFMYNLVQFLGFSWIFVNLTVRFCILGKESFYDTFHTVADMMYFCQMLAVVETINAAIGVTTSPVLPSLIQLLGRNFILFIIFGTMEEMQNKAVVFFVFYLWSAIEIFRYSFYMLTCIDMDWKVLTWLRYTLWIPLYPLGCLAEAVSVIQSIPIFNETGRFSFTLPYPVKIKVRFSFFLQIYLIMIFLGLYINFRHLYKQRRRRYGQKKKKIH
B3: DDX42_HUMAN (protein, UniProt Q86XP3 1-938, looked up)
ATP-dependent RNA helicase …: MNWNKGGPGTKRGFGFGGFAISAGKKEEPKLPQQSHSAFGATSSSSGFGKSAPPQLPSFYKIGSKRANFDEENAYFEDEEEDSSNVDLPYIPAENSPTRQQFHSKPVDSDSDDDPLEAFMAEVEDQAARDMKRLEEKDKERKNVKGIRDDIEEEDDQEAYFRYMAENPTAGVVQEEEEDNLEYDSDGNPIAPTKKIIDPLPPIDHSEIDYPPFEKNFYNEHEEITNLTPQQLIDLRHKLNLRVSGAAPPRPGSSFAHFGFDEQLMHQIRKSEYTQPTPIQCQGVPVALSGRDMIGIAKTGSGKTAAFIWPMLIHIMDQKELEPGDGPIAVIVCPTRELCQQIHAECKRFGKAYNLRSVAVYGGGSMWEQAKALQEGAEIVVCTPGRLIDHVKKKATNLQRVSYLVFDEADRMFDMGFEYQVRSIASHVRPDRQTLLFSATFRKKIEKLARDILIDPIRVVQGDIGEANEDVTQIVEILHSGPSKWNWLTRRLVEFTSSGSVLLFVTKKANAEELANNLKQEGHNLGLLHGDMDQSERNKVISDFKKKDIPVLVATDVAARGLDIPSIKTVINYDVARDIDTHTHRIGRTGRAGEKGVAYTLLTPKDSNFAGDLVRNLEGANQHVSKELLDLAMQNAWFRKSRFKGGKGKKLNIGGGGLGYRERPGLGSENMDRGNNNVMSNYEAYKPSTGAMGDRLTAMKAAFQSQYKSHFVAASLSNQKAGSSAAGASGWTSAGSLNSVPTNSAQQGHNSPDSPVTSAAKGIPGFGNTGNISGAPVTYPSAGAQGVNNTASGNNSREGTGGSNGKRERYTENRGSSRHSHGETGNRHSDSPRHGDGGRHGDGYRHPESSSRHTDGHRHGENRHGGSAGRHGENRGANDGRNGESRKEAFNRESKMEPKMEPKVDSSKMDKVDSKTDKTADGFAVPEPPKRKKSRWDS
B4: CBPD_HUMAN (protein, UniProt O75976 32-1380, looked up)
Carboxypeptidase D: AHIKKAEATTTTTSAGAEAAEGQFDRYYHEEELESALREAAAAGLPGLARLFSIGRSVEGRPLWVLRLTAGLGSLIPEGDAGPDAAGPDAAGPLLPGRPQVKLVGNMHGDETVSRQVLIYLARELAAGYRRGDPRLVRLLNTTDVYLLPSLNPDGFERAREGDCGFGDGGPSGASGRDNSRGRDLNRSFPDQFSTGEPPALDEVPEVRALIEWIRRNKFVLSGNLHGGSVVASYPFDDSPEHKATGIYSKTSDDEVFKYLAKAYASNHPIMKTGEPHCPGDEDETFKDGITNGAHWYDVEGGMQDYNYVWANCFEITLELSCCKYPPASQLRQEWENNRESLITLIEKVHIGVKGFVKDSITGSGLENATISVAGINHNITTGRFGDFYRLLVPGTYNLTVVLTGYMPLTVTNVVVKEGPATEVDFSLRPTVTSVIPDTTEAVSTASTVAIPNILSGTSSSYQPIQPKDFHHHHFPDMEIFLRRFANEYPNITRLYSLGKSVESRELYVMEISDNPGVHEPGEPEFKYIGNMHGNEVVGRELLLNLIEYLCKNFGTDPEVTDLVHNTRIHLMPSMNPDGYEKSQEGDSISVIGRNNSNNFDLNRNFPDQFVQITDPTQPETIAVMSWMKSYPFVLSANLHGGSLVVNYPFDDDEQGLATYSKSPDDAVFQQIALSYSKENSQMFQGRPCKNMYPNEYFPHGITNGASWYNVPGGMQDWNYLQTNCFEVTIELGCVKYPLEKELPNFWEQNRRSLIQFMKQVHQGVRGFVLDATDGRGILNATISVAEINHPVTTYKTGDYWRLLVPGTYKITASARGYNPVTKNVTVKSEGAIQVNFTLVRSSTDSNNESKKGKGASSSTNDASDPTTKEFETLIKDLSAENGLESLMLRSSSNLALALYRYHSYKDLSEFLRGLVMNYPHITNLTNLGQSTEYRHIWSLEISNKPNVSEPEEPKIRFVAGIHGNAPVGTELLLALAEFLCLNYKKNPAVTQLVDRTRIVIVPSLNPDGRERAQEKDCTSKIGQTNARGKDLDTDFTNNASQPETKAIIENLIQKQDFSLSVALDGGSMLVTYPYDKPVQTVENKETLKHLASLYANNHPSMHMGQPSCPNKSDENIPGGVMRGAEWHSHLGSMKDYSVTYGHCPEITVYTSCCYFPSAARLPSLWADNKRSLLSMLVEVHKGVHGFVKDKTGKPISKAVIVLNEGIKVQTKEGGYFHVLLAPGVHNIIAIADGYQQQHSQVFVHHDAASSVVIVFDTDNRIFGLPRELVVTVSGATMSALILTACIIWCICSIKSNRHKDGFHRLRQHHDEYEDEIRMMSTGSKKSLLSHEFQDETDTEEETLYSSKH
B5: CYFP1_HUMAN (protein, UniProt Q7L576 1-1253, looked up)
Cytoplasmic FMR1-interacting …: MAAQVTLEDALSNVDLLEELPLPDQQPCIEPPPSSLLYQPNFNTNFEDRNAFVTGIARYIEQATVHSSMNEMLEEGQEYAVMLYTWRSCSRAIPQVKCNEQPNRVEIYEKTVEVLEPEVTKLMNFMYFQRNAIERFCGEVRRLCHAERRKDFVSEAYLITLGKFINMFAVLDELKNMKCSVKNDHSAYKRAAQFLRKMADPQSIQESQNLSMFLANHNKITQSLQQQLEVISGYEELLADIVNLCVDYYENRMYLTPSEKHMLLKVMGFGLYLMDGSVSNIYKLDAKKRINLSKIDKYFKQLQVVPLFGDMQIELARYIKTSAHYEENKSRWTCTSSGSSPQYNICEQMIQIREDHMRFISELARYSNSEVVTGSGRQEAQKTDAEYRKLFDLALQGLQLLSQWSAHVMEVYSWKLVHPTDKYSNKDCPDSAEEYERATRYNYTSEEKFALVEVIAMIKGLQVLMGRMESVFNHAIRHTVYAALQDFSQVTLREPLRQAIKKKKNVIQSVLQAIRKTVCDWETGHEPFNDPALRGEKDPKSGFDIKVPRRAVGPSSTQLYMVRTMLESLIADKSGSKKTLRSSLEGPTILDIEKFHRESFFYTHLINFSETLQQCCDLSQLWFREFFLELTMGRRIQFPIEMSMPWILTDHILETKEASMMEYVLYSLDLYNDSAHYALTRFNKQFLYDEIEAEVNLCFDQFVYKLADQIFAYYKVMAGSLLLDKRLRSECKNQGATIHLPPSNRYETLLKQRHVQLLGRSIDLNRLITQRVSAAMYKSLELAIGRFESEDLTSIVELDGLLEINRMTHKLLSRYLTLDGFDAMFREANHNVSAPYGRITLHVFWELNYDFLPNYCYNGSTNRFVRTVLPFSQEFQRDKQPNAQPQYLHGSKALNLAYSSIYGSYRNFVGPPHFQVICRLLGYQGIAVVMEELLKVVKSLLQGTILQYVKTLMEVMPKICRLPRHEYGSPGILEFFHHQLKDIVEYAELKTVCFQNLREVGNAILFCLLIEQSLSLEEVCDLLHAAPFQNILPRVHVKEGERLDAKMKRLESKYAPLHLVPLIERLGTPQQIAIAREGDLLTKERLCCGLSMFEVILTRIRSFLDDPIWRGPLPSNGVMHVDECVEFHRLWSAMQFVYCIPVGTHEFTVEQCFGDGLHWAGCMIIVLLGQQRRFAVLDFCYHLLKVQKHDGKDEIIKNVPLKKMVERIRKFQILNDEIITILDKYLKSGDGEGTPVEHVRCFQPPIHQSLASS
B6: DSG1_HUMAN (protein, UniProt Q02413 50-1049, looked up)
Desmoglein-1: EWIKFAAACREGEDNSKRNPIAKIHSDCAANQQVTYRISGVGIDQPPYGIFVINQKTGEINITSIVDREVTPFFIIYCRALNSMGQDLERPLELRVRVLDINDNPPVFSMATFAGQIEENSNANTLVMILNATDADEPNNLNSKIAFKIIRQEPSDSPMFIINRNTGEIRTMNNFLDREQYGQYALAVRGSDRDGGADGMSAECECNIKILDVNDNIPYMEQSSYTIEIQENTLNSNLLEIRVIDLDEEFSANWMAVIFFISGNEGNWFEIEMNERTNVGILKVVKPLDYEAMQSLQLSIGVRNKAEFHHSIMSQYKLKASAISVTVLNVIEGPVFRPGSKTYVVTGNMGSNDKVGDFVATDLDTGRPSTTVRYVMGNNPADLLAVDSRTGKLTLKNKVTKEQYNMLGGKYQGTILSIDDNLQRTCTGTININIQSFGNDDRTNTEPNTKITTNTGRQESTSSTNYDTSTTSTDSSQVYSSEPGNGAKDLLSDNVHFGPAGIGLLIMGFLVLGLVPFLMICCDCGGAPRSAAGFEPVPECSDGAIHSWAVEGPQPEPRDITTVIPQIPPDNANIIECIDNSGVYTNEYGGREMQDLGGGERMTGFELTEGVKTSGMPEICQEYSGTLRRNSMRECREGGLNMNFMESYFCQKAYAYADEDEGRPSNDCLLIYDIEGVGSPAGSVGCCSFIGEDLDDSFLDTLGPKFKKLADISLGKESYPDLDPSWPPQSTEPVCLPQETEPVVSGHPPISPHFGTTTVISESTYPSGPGVLHPKPILDPLGYGNVTVTESYTTSDTLKPSVHVHDNRPASNVVVTERVVGPISGADLHGMLEMPDLRDGSNVIVTERVIAPSSSLPTSLTIHHPRESSNVVVTERVIQPTSGMIGSLSMHPELANAHNVIVTERVVSGAGVTGISGTTGISGGIGSSGLVGTSMGAGSGALSGAGISGGGIGLSSLGGTASIGHMRSSSDHHFNQTIGSASPSTARSRITKYSTVQYSK

Test system: KDM4A-I71AzF
Assay: CASI: photo-crosslinking with HEK293T cell extracts, StrepTactin enrichment and LC-MS/MS proteomics;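 note: lysates from HEK293T cells pretreated with a KDM4 inhibitor to raise proteome methylation, affinity-purified after ±UV, gel-resolved, trypsin-digested, with exclusive unique peptides per protein averaged per condition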
Assay type: binding, human
Conditions: sheet "Final results but with 0.01"

Compared with B1, B2 is higher in “Fold change (+UV/-UV)” value: 0 for the first, 0.6667 for the second.

First: B3
Second: B4
The “Fold change (+UV/-UV)” value of the first is lower: 0.6 for the first, 1 for the second.

Going from B5 to B6, the “Fold change (+UV/-UV)” value rises from 0.6 to 2.
